Where two headings read alike, the source gives them in different places.

Experimental findings from PMC7356358 (Biomolecules, 2020) are described below.

The subject of one series is KPf. To be noted: MP-SPR, PfHsp40 over immobilized KPf, three runs. The procedure:
The analysis was conducted both in the absence and presence of 5 mM of ATP/ADP. The ligand and analyte pairs were swapped, and the data generated were analyzed after global fitting. Association was allowed for 2 min, and dissociation was monitored for 8 min. Data analysis was conducted using TraceDrawer software version 1.8 (Ridgeview Instruments).

A short description of series [1]: ATPase activity (released inorganic phosphate). The series is classed as biochemical. To be noted: PfHsp40 preparation alone, non-ATPase control.
Protocol: Hsp70 proteins at final concentration of 0.4 μM were each incubated for 5 min in buffer HKMD (10 mM HEPES-KOH pH 7.5, 100 mM KCl, 2 mM MgCl2 and 0.5 mM DTT). The reaction was initiated by the addition of ATP at various concentrations (0–5 mM) and samples were analyzed every 30 min for 4 h.
In another series the target is DnaK (Escherichia coli, UniProt P0A6Y8). To be noted: MP-SPR, PfHsp40 over immobilized DnaK, three runs.
DnaK, sequence (P0A6Y8 whole entry): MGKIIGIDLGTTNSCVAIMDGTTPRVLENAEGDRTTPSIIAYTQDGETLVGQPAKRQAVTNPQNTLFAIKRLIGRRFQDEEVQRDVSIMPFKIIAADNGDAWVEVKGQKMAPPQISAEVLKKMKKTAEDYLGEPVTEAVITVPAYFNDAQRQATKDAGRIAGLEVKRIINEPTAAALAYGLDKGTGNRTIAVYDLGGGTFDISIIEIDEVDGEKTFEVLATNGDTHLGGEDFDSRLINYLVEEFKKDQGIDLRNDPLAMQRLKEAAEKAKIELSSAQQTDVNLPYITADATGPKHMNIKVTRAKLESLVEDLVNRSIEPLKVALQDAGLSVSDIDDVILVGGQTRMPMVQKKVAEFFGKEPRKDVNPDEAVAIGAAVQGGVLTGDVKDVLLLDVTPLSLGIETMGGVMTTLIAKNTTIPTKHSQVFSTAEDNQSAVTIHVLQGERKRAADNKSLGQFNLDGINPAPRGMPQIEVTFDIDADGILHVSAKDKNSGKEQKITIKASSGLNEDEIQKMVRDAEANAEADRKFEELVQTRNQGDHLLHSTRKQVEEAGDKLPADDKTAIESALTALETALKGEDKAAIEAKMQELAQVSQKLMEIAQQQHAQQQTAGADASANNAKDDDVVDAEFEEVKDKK
The next series relates to PfHsp70-1. The series can be described thus: Interaction of PfHsp40 with PfHsp70-1 by MP-SPR. Type of series: binding, Plasmodium falciparum.
PfHsp70-1, sequence (P11144 1-630 limits assumed): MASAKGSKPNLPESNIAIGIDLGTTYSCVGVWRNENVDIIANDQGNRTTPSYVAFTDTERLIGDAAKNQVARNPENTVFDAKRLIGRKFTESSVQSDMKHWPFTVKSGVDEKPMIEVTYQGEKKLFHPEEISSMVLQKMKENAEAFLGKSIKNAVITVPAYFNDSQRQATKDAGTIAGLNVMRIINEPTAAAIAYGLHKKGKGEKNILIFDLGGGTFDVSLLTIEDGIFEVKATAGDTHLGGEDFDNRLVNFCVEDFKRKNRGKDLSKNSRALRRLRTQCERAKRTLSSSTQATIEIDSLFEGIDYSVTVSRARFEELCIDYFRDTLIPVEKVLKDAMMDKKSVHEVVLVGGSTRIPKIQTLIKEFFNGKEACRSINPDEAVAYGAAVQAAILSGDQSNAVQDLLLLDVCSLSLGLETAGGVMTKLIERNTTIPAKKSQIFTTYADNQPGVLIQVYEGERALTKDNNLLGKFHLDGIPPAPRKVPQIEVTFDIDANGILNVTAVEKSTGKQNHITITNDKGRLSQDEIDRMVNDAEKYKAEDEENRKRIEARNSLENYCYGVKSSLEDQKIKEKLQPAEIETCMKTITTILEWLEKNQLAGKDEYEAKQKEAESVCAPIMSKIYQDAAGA

KPf, sequence (P11144 405-631 limits assumed): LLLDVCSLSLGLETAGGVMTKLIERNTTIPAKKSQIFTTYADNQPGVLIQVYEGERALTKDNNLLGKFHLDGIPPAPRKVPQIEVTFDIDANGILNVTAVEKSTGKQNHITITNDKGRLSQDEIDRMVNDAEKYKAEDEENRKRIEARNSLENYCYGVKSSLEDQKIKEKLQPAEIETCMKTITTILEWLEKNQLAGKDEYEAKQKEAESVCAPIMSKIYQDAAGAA

B1: PfHsp40: P. falciparum type I Hsp40 (PF3D7_1437900), co-chaperone of PfHsp70-1 (protein)
chain: MFFSSGFPFDSMGGQQARRKREVNNNKFYEVLNLKKNCTTDEVKKAYRKLAIIHHPDKGGDPEKFKEISRAYEVLSDEEKRKLYDEYGEEGLENGEQPADATDLFDFILNAGKGKKKRGEDIVSEVKVTLEQLYNGATKKLAISKDIICTNCEGHGGPKDAKVDCKQCNGRGTKTYMRYHSSVLHQTEVTCNTCRGKGKIFNEKDKCANCKGMCVLKTRKIIEVYIPKGAPNKHKIVFNGEADEKPNVITGNLVVILNEKQHPVFRREGIDLFMNYKISLYESLTGFVAEVTHLDERKILVNCTNSGFIRHGDIREVLDEGMPTYKDPFKKGNLYITFEVEYPMDLIITNENKEVLKILKKQNEVEKKYDLENSELEVVSCSPVDKEYIKVRVTKQQQQQQQEAYDDEDHQPEMEGGRVACAQQ
modifications: left off: His6, N-terminal, state not stated
B1: the Ka with KPf (+ 5 mM ADP) is listed as 1.36 (±0.26) × 10^2 Ms^−1; with KPf (+ 5 mM ATP), 1.72 (±0.02) × 10^2 Ms^−1; with KPf (no nucleotide), 1.24 (±0.04) × 10^4 Ms^−1; with DnaK (+ 5 mM ADP), 1.16 (±0.06) × 10^2 Ms^−1; in the series with DnaK (+ 5 mM ATP), 1.22 (±0.02) × 10^2 Ms^−1; with DnaK (no nucleotide) it was 1.12 (±0.02) × 10^2 Ms^−1. The Ka is 1.53 (±0.03) × 10^3 Ms^−1 with PfHsp70-1 (PfHsp40 over immobilized PfHsp70-1, + 5 mM ADP, three runs); 1.33 (±0.03) × 10^3 Ms^−1 in the series on PfHsp70-1 (PfHsp40 over immobilized PfHsp70-1, no nucleotide, three runs); 1.81 (±0.01) × 10^2 Ms^−1 in the series on PfHsp70-1 (analyte PfHsp40 0-2000 nM over immobilized PfHsp70-1, + 5 mM ATP, global fit, mean (SD) of three runs). Moreover, the “independent basal ATPase activity” value in series [1] was “no detectable”.
